# Experimental data published in patent US20060263331A1, “Therapeutic use of tumor necrosis factor-alpha mutein” (priority 2002, published 2006).
# Legend:
# Assay type in all cases: in vivo, human
# Liver Cancer = experiment: Clinical monotherapy of rhTNFm1, liver cancer; conditions: 12 patients
# Excerpt: (§1) Patients were selected based on the following criteria: i) measurable, objective tumor; ii) Karnofsky performance status (KPS)≧60; iii) age 18-75; iv) major organs in basically normal condition; v) no chemotherapy, radiotherapy and biologic therapy within the last month; vi) predicted ≧3 mon. survival; and vii) with patient's informed consent signed.
# (§2) Patients were excluded based on the following criteria: i) with history of allergic reactions to TNF or its derivatives; ii) pregnant or lactating women; iii) major organs with obvious damages or malfunction; iv) in ≧38° C. fever; v) with obvious tendency to haemorrhage; vi) with history of hypo- or hypertension; vii) with serious albuminemia; and viii) with strong tendency of disobedience or resistance.
# (§3) Patients were removed from the evaluation if any of the following conditions apply: i) treatment was not completed according to the protocol; ii) incomplete records; and iii) treatment using cancer therapies not in the protocol. However, patients who withdrew due to adverse reactions to the therapy were still included in the evaluation.
# (§4) The results of the treatment of tumors were evaluated based the following criteria: i) complete response (CR)—complete disappearance of observable pathological changes for at least 4 weeks; ii) partial response (PR)—reduction by ≧50% in tumor size measured by the product of the maximum circular and vertical dimensions for at least 4 weeks; iii) minimum response (MR)—reduction by >25% but <50% in tumor size measured by the product of the maximum circular and vertical dimensions for at least 4 weeks; iv) stabilized (SD)—reduction by ≦25% but without increase by >25% in tumor size measured by the product of the maximum circular and vertical dimensions for at least 4 weeks; and progression (PD): increase by >25% in tumor size in one or more sites.
# (§5) Patients rested on day 1 and 2. The treatment cycle was 3-4 weeks.
# Malignant melanoma = experiment: Clinical monotherapy of rhTNFm1, malignant melanoma; conditions: 18 patients
# Excerpt: as §1, §2, §3, §4, §5
# Colon Cancer = experiment: Clinical monotherapy of rhTNFm1, colon cancer; conditions: 7 patients
# Excerpt: as §1, §2, §3, §4, §5
# Kidney Cancer = experiment: Clinical monotherapy of rhTNFm1, kidney cancer; conditions: 3 patients
# Excerpt: as §1, §2, §3, §4, §5
# [1] = KPS of patients treated with rhTNFm1 alone; conditions: P=0.013, particularly malignant pleural effusion
# Excerpt: as §1, §5
# Malignant Lymphoma = experiment: Clinical monotherapy of rhTNFm1, malignant lymphoma; conditions: 71 patients
# Excerpt: as §1, §2, §3, §4, §5
# (§6) Table II summaries results of the treatment of patients with malignant lymphoma, classified according to Hodgkin's disease and non-Hodgkin's lymphoma. Within each of category of lymphoma, patients were further classified into two groups: chemo-naïve and chemo-refractory. The chemo-naïve patients were patients who had never been treated with any anti-cancer agent previously whereas chemo-refractory patients were ones who failed treatment with one or more anti-cancer agent.
# Hodgkin's disease = experiment: Clinical monotherapy of rhTNFm1, Hodgkin's disease; conditions: for Efficacy CR / Efficacy MR / Efficacy PD / Efficacy PR / Efficacy SD: patient count
# Excerpt: as §1, §2, §3, §4, §5, §6
# [2] = Chemo-naïve Grade I & II, 0 patients
# [3] = Chemo-naïve Grade III & IV, 0 patients
molecule,measurement,setting,value
"rhTNFm1: Recombinant human TNF-α mutant 1 expressed in E. coli; SEQ ID NO: 3 with N-terminal methionine (FIG. 1, 2) (protein, rhTNFm1 with Met) MRKRKPVAHVVANPQAEGQLQWLNRRANALLANGVELRDNQLVVPSEGLYLIYSQVLFKGQGCPSTHVLLTHTISRIAVSYQTKVNLLSAIKSPCQRETPEGAEAKPWYEPIYLGGVFQLEKGDRLSAEINRPDYLDFAESGQVYFGIIAQ",Response Rate (%) CR,Liver Cancer,0.00%
same,Response Rate (%) CR + PR,Liver Cancer,0.00%
same,Response Rate (%) PR,Liver Cancer,0.00%
same,Efficacy CR,Liver Cancer; patient count,0
same,Efficacy MR,Liver Cancer; patient count,0
same,Efficacy PD,Liver Cancer; patient count,2
same,Efficacy PR,Liver Cancer; patient count,0
same,Efficacy SD,Liver Cancer; patient count,10
same,Response Rate (%) CR,Malignant melanoma,0.00%
same,Response Rate (%) CR + PR,Malignant melanoma,11.11%
same,Response Rate (%) PR,Malignant melanoma,11.11%
same,Efficacy CR,Malignant melanoma; patient count,0
same,Efficacy MR,Malignant melanoma; patient count,3
same,Efficacy PD,Malignant melanoma; patient count,3
same,Efficacy PR,Malignant melanoma; patient count,2
same,Efficacy SD,Malignant melanoma; patient count,10
same,Response Rate (%) CR,Colon Cancer,0.00%
same,Response Rate (%) CR + PR,Colon Cancer,0.00%
same,Response Rate (%) PR,Colon Cancer,0.00%
same,Efficacy CR,Colon Cancer; patient count,0
same,Efficacy MR,Colon Cancer; patient count,0
same,Efficacy PD,Colon Cancer; patient count,4
same,Efficacy PR,Colon Cancer; patient count,0
same,Efficacy SD,Colon Cancer; patient count,3
same,Response Rate (%) CR,Kidney Cancer,0.00%
same,Response Rate (%) CR + PR,Kidney Cancer,0.00%
same,Response Rate (%) PR,Kidney Cancer,0.00%
same,Efficacy CR,Kidney Cancer; patient count,0
same,Efficacy MR,Kidney Cancer; patient count,1
same,Efficacy PD,Kidney Cancer; patient count,1
same,Efficacy PR,Kidney Cancer; patient count,0
same,Efficacy SD,Kidney Cancer; patient count,1
same,KPS compared to that prior to the treatment,[1],significantly improved
same,Response Rate (%) CR,Malignant Lymphoma,2.82%
same,Response Rate (%) CR + PR,Malignant Lymphoma,28.17%
same,Response Rate (%) PR,Malignant Lymphoma,25.35%
same,Efficacy CR,Malignant Lymphoma; patient count,2
same,Efficacy MR,Malignant Lymphoma; patient count,8
same,Efficacy PD,Malignant Lymphoma; patient count,11
same,Efficacy PR,Malignant Lymphoma; patient count,18
same,Efficacy SD,Malignant Lymphoma; patient count,32
same,Response Rate (%) CR,Hodgkin's disease; [2],0%
same,Response Rate (%) CR + PR,Hodgkin's disease; [2],0%
same,Response Rate (%) PR,Hodgkin's disease; [2],0%
same,Response Rate (%) CR,Hodgkin's disease; [3],0%
same,Response Rate (%) CR + PR,Hodgkin's disease; [3],0%
same,Response Rate (%) PR,Hodgkin's disease; [3],0%
same,Response Rate (%) CR,"Hodgkin's disease; Chemo-naïve Total, 0 patients",0%
same,Response Rate (%) CR + PR,"Hodgkin's disease; Chemo-naïve Total, 0 patients",0%
same,Response Rate (%) PR,"Hodgkin's disease; Chemo-naïve Total, 0 patients",0%
same,Response Rate (%) CR,"Hodgkin's disease; Chemo-refractory, 6 patients",0%
same,Response Rate (%) CR + PR,"Hodgkin's disease; Chemo-refractory, 6 patients",0%
same,Response Rate (%) PR,"Hodgkin's disease; Chemo-refractory, 6 patients",0%
same,Efficacy CR,Hodgkin's disease; [2],0
same,Efficacy MR,Hodgkin's disease; [2],0
same,Efficacy PD,Hodgkin's disease; [2],0
same,Efficacy PR,Hodgkin's disease; [2],0
same,Efficacy SD,Hodgkin's disease; [2],0
same,Efficacy CR,Hodgkin's disease; [3],0
same,Efficacy MR,Hodgkin's disease; [3],0
same,Efficacy PD,Hodgkin's disease; [3],0
same,Efficacy PR,Hodgkin's disease; [3],0
same,Efficacy SD,Hodgkin's disease; [3],0
same,Efficacy CR,"Hodgkin's disease; Chemo-naïve Total, 0 patients",0
same,Efficacy MR,"Hodgkin's disease; Chemo-naïve Total, 0 patients",0
same,Efficacy PD,"Hodgkin's disease; Chemo-naïve Total, 0 patients",0
same,Efficacy PR,"Hodgkin's disease; Chemo-naïve Total, 0 patients",0
same,Efficacy SD,"Hodgkin's disease; Chemo-naïve Total, 0 patients",0
same,Efficacy CR,"Hodgkin's disease; Chemo-refractory, 6 patients",0
same,Efficacy MR,"Hodgkin's disease; Chemo-refractory, 6 patients",0
same,Efficacy PD,"Hodgkin's disease; Chemo-refractory, 6 patients",1
same,Efficacy PR,"Hodgkin's disease; Chemo-refractory, 6 patients",0
same,Efficacy SD,"Hodgkin's disease; Chemo-refractory, 6 patients",5
